Data as given in the RNAGym collection of RNA variant scans (doi:10.7554/elife.90254).

B1: OR4K15 (parent)
chain: GUUAACGGUCAUAGGCCAUGGAAACUAGGAGCACCAUUUCGCUGCCAGUGAAGAAAUGAACAAAGAAAAUCUGGGCCAGGCAGGCAUCAAAAGAAAUAGUCUUGCGCUCAACCAGAAAGUCUGUAAUCAUUUUAAGGGUA

Variants of: B1
Assay: self-cleavage, relative activity (ratio to wild type); higher = more cleavage; in vitro, sequencing; the parent is a self-cleaving ribozyme

Row | Variant | self-cleavage
1 | A59G G93A | 1.61
2 | A60G A95U | 0.97
3 | A60G A95C | 1
4 | A60G A95G | 1.63
5 | A59U A60G | 1.32
6 | A60G A67G | 0.84
7 | A60G C85U | 1.31
8 | A59U A66G | 1.31
9 | A60G C105A | 0.04
10 | A60G C105G | 0.01
11 | A59U U108A | 0.02
12 | A60G A114G | 0.31
13 | A60G A125U | 2.64
14 | A60G A110C | 0.4
15 | A59U A78C | 0.4
16 | A59G A129G | 1.16
17 | A59U A118G | 0.75
18 | A60G A129U | 1.14
19 | A60G A117G | 1.55
20 | A60G A117C | 0.3
21 | A59G A116C | 0.07

Row | Variant | self-cleavage
22 | A60G G74U | 0.18
23 | A59U U120C | 1.78
24 | A59G A125G | 0.4
25 | A59U A96C | 0.81
26 | A59U A96G | 1.87
27 | A60G U132C | 1.07
28 | A59G A126G | 0.81
29 | A60G G99U | 0.38
30 | A60G U124A | 0.75
31 | A60C U87C | 1.18
32 | A59U A140G | 2.05
33 | A60C U130C | 1.4
34 | A59U U70C | 0.53
35 | A59U A69G | 1.51
36 | A59G U122C | 1.1
37 | A59G A67G | 1.28
38 | A60G G79U | 0.08
39 | A60G U122A | 1.41
40 | A60G U122C | 0.84
41 | A59G A114G | 0.26
42 | A59U A125G | 0.43

Row | Variant | self-cleavage
43 | A59G A140G | 1.25
44 | A60G C77U | 2.13
45 | A60C A95G | 1.47
46 | A59G U127C | 0.7
47 | A59G U127A | 1.82
48 | A60G A89G | 1.55
49 | A60G A89C | 1.36
50 | A60G A89U | 1.5
51 | A60G C76U | 0.13
52 | A60G U108A | 0.02
53 | A60G U108C | 0.03
54 | A59U A82U | 0.15
55 | A59U A82G | 0.43
56 | A59U A64G | 1.4
57 | A59G A78G | 0.26
58 | A60G U120A | 1.93
59 | A60G U120C | 0.82
60 | A59G A60G | 0.59
61 | A59G A60U | 2.03
62 | A59G C101A | 0.13
63 | A59G U103A | 0.62

Row | Variant | self-cleavage
64 | A60G A90U | 1.84
65 | A60G A90G | 0.4
66 | A59U A126G | 1.26
67 | A60G G106A | 0.02
68 | A59G U139C | 1.4
69 | A59G U139A | 2.02
70 | A59G C85U | 0.51
71 | A60G U102C | 1.4
72 | A59G C71A | 0.48
73 | A59U A62C | 1.11
74 | A59U A62U | 1.44
75 | A60G C109A | 0.21
76 | A60U | 1.29
77 | A60C | 1.7
78 | A60G | 1.14
79 | A59U A135G | 1.33
80 | A59G A82G | 0.45
81 | A59G A82U | 0.34
82 | A59U A117G | 1.72
83 | A59U A117U | 0.89
84 | A59G A92G | 1.22
